# Measured values: patent publication US20250145723A1 (MINGHUI PHARMACEUTICAL HANGZHOU, published 2025)
# Residue numbers refer to the chain shown, from its start.
# B1: 5115-H1-M1-Fc (Fc fusion)
# chain: EVQLVESGGGLVQPGGSLRLSCAASGRTFSSFVMSWFRQAPGKEREFVSAISGSGSRSRYADSVKGRFTISRDNSKNTLYLQMNSLRAEDTAVYYCAANPRRATPDYTQYAYWGQGTLVTVSS
# notes: VHH-Fc; Fc not specified; not shown: Fc
# B2: 5115-H1-M21-Fc (Fc fusion)
# chain: B1 chain with R27K, S58T
# notes: as for B1
# B3: 5115-H1-M13-Fc (Fc fusion)
# chain: B1 chain with G26L, R27G, S58A
# notes: as for B1
# B4: 5115-H1-M20-Fc (Fc fusion)
# chain: B1 chain with S30R, S58Y
# notes: as for B1
# B5: 5115-H1-M34-Fc (Fc fusion)
# chain: B1 chain with S58M, Y107M, T108R
# notes: as for B1
# B6: 5115-H1-M8-Fc (Fc fusion)
# chain: B1 chain with S58Q, Y107L, T108S
# notes: as for B1
# B7: 5115-H1-M16-Fc (Fc fusion)
# chain: B1 chain with G26H, S58A, Y107L
# notes: as for B1
# B8: 5115-H1-M9-Fc (Fc fusion)
# chain: B1 chain with S58L, Y107L, T108L
# notes: as for B1
# B9: 5115-H4-M34-9-Fc (Fc fusion)
# chain: B1 chain with R27P, T28A, S35A, E44G, R45L, S58A, Y107L
# notes: as for B1
# B10: 5115-H1-M12-Fc (Fc fusion)
# chain: B1 chain with S58A, Y107L, T108R
# notes: as for B1
# B11: 5115-H1-M27-Fc (Fc fusion)
# chain: B1 chain with F29L, S35A, E44G, R45L, S56L, S58A, R102Y, Y107L
# notes: as for B1
# B12: 5115-H1-M7-Fc (Fc fusion)
# chain: B1 chain with S54R, S58A, R59Y, Y107L, T108R
# notes: as for B1
# B13: 5115-H4-M34-3-Fc (Fc fusion)
# chain: B1 chain with R27G, S35A, E44G, R45L, S58A, Y107L, A111K
# notes: as for B1
# B14: 5115-H4-M34-7-Fc (Fc fusion)
# chain: B1 chain with S35A, E44G, R45L, S56R, R57Q, S58A, Y107L, T108S, Q109R
# notes: as for B1
# B15: 5115-H1-M5-Fc (Fc fusion)
# chain: B1 chain with T28Y, S35A, E44G, R45L, S56L, S58A, Y107L, Q109S
# notes: as for B1
# B16: 5115-H4-M34-8-Fc (Fc fusion)
# chain: B1 chain with S31T, S35A, E44G, R45L, Y107L
# notes: as for B1
# B17: 5115-H4-M34-4-Fc (Fc fusion)
# chain: B1 chain with R27G, S35A, E44G, R45L, S54F, S58A, Y107L
# notes: as for B1
# B18: 5115-H1-M39-Fc (Fc fusion)
# chain: B1 chain with S58F, Y107L, T108Q
# notes: as for B1
# B19: 5115-H1-M26-Fc (Fc fusion)
# chain: B1 chain with S58Y, R59T, Y107L, T108M
# notes: as for B1
# B20: 5115-H1-M36-Fc (Fc fusion)
# chain: B1 chain with S30P, S58A, R59Y, Y107L, T108R
# notes: as for B1
# B21: 5115-H1-M18-Fc (Fc fusion)
# chain: B1 chain with T28R, S58A, Y107L
# notes: as for B1
# B22: 5115-H1-M28-Fc (Fc fusion)
# chain: B1 chain with S58Y, Y107L, T108K
# notes: as for B1
# B23: 5115-H1-M29-Fc (Fc fusion)
# chain: B1 chain with S58A, R59Y, Y107L, T108R
# notes: as for B1
# B24: 5115-H1-M22-Fc (Fc fusion)
# chain: B1 chain with Y107L, T108L
# notes: as for B1
# B25: 5115-H1-M2-Fc (Fc fusion)
# chain: B1 chain with S58A, Y107L, T108L
# notes: as for B1
# B26: 5115-H4-M34-1-Fc (Fc fusion)
# chain: B1 chain with S30N, S31R, S35A, E44G, R45L, S56Q, S58A, Y107L
# notes: as for B1
# B27: 5115-H1-M32-Fc (Fc fusion)
# chain: B1 chain with T28A, F29R, S58V
# notes: as for B1
# B28: 5115-H1-M35-Fc (Fc fusion)
# chain: B1 chain with S58A, R59L, Y107L, T108R
# notes: as for B1
# B29: 5115-H4-M34-5-Fc (Fc fusion)
# chain: B1 chain with G26M, R27T, S35A, E44G, R45L, S54H, S58A, Y107L
# notes: as for B1
# B30: 5115-H1-M14-Fc (Fc fusion)
# chain: B1 chain with S58M, Y107L
# notes: as for B1
# B31: 5115-H4-M25-Fc (Fc fusion)
# chain: B1 chain with R27V, E44G, R45L, S58A, R59L, Y107L
# notes: as for B1
# B32: 5115-H1-M33-Fc (Fc fusion)
# chain: B1 chain with G26M, R27P
# notes: as for B1
# B33: 5115-H4-M28-Fc (Fc fusion)
# chain: B1 chain with E44G, R45L, S54G, S58A, R59Y, T69A, Y107L, T108R
# notes: as for B1
# B34: 5115-H1-M24-Fc (Fc fusion)
# chain: B1 chain with S31G, S35A, E44G, R45L, S54T, S58A, Y107L
# notes: as for B1
# B35: 5115-H1-M11-Fc (Fc fusion)
# chain: B1 chain with R27I, T28R, S58H
# notes: as for B1
# B36: 5115-H1-M30-Fc (Fc fusion)
# chain: B1 chain with R27A, T28R, S58H
# notes: as for B1
# B37: 5115-H1-M6-Fc (Fc fusion)
# chain: B1 chain with T28E, S35A, E44G, R45L, S58A, Y107L, Q109S
# notes: as for B1
# B38: 5115-H1-M23-Fc (Fc fusion)
# chain: B1 chain with S30K, S58A, Y107M
# notes: as for B1
# B39: 5115-H1-M19-Fc (Fc fusion)
# chain: B1 chain with S58M, Y107L, T108H
# notes: as for B1
# B40: 5115-H1-M31-Fc (Fc fusion)
# chain: B1 chain with S58A, Y107M, T108R
# notes: as for B1
# B41: 5115-H4-M3-Fc (Fc fusion)
# chain: B1 chain with S35A, E44G, R45L, S58A
# notes: as for B1
# B42: 5115-H1-M25-Fc (Fc fusion)
# chain: B1 chain with T28F, S58A, T108S
# notes: as for B1
# B43: 5115-H1-M15-Fc (Fc fusion)
# chain: B1 chain with S58M, Y107L, T108R
# notes: as for B1
# B44: 5115-H1-M4-Fc (Fc fusion)
# chain: B1 chain with T28F, S58F
# notes: as for B1
# B45: 5115-H1-M40-Fc (Fc fusion)
# chain: B1 chain with S58Q, Y107L, T108R
# notes: as for B1
# Target: T1, recombinant human IGF-1R-his (human, UniProt P08069 31-932)
# T1 construct: Recombinant his-tagged protein; also called hIGF-1R-his; hIGF1R-his; not shown: his tag
# Assay: ELISA, coated hIGF-1R-his
# Procedure: The binding activity of the nanobody-Fc fusion proteins obtained after two rounds of mutant construction with the antigen proteins (recombinant human IGF-1R-His) was detected by an ELISA method: 2 μg/mL recombinant human IGF1R-His antigen proteins were added to a 96-well ELISA plate, at 30 μL/well, for coating overnight at 4° C. The plate was washed three times with PBST. PBS containing 5% skim milk powder was added for blocking at room temperature for 2 h. The plate was washed three times with PBST. The nanobody-Fc fusion proteins were serially diluted 3-fold, and the nanobody-Fc fusion proteins of different concentrations were added to each well at 30 μL/well and incubated at room temperature for 1 h. The plate was washed three times with PBST, and horseradish peroxidase-labeled anti-human Fc antibodies were added at 30 μL/well and incubated at room temperature for 50 min. The plate was washed three times with PBST. TMB substrate solution was added at 30 μL/well for color development in the dark for 1-5 min, 30 μL of 2 M hydrochloric acid was added to terminate the reaction, and the OD₄₅₀ was read using a microplate reader. Curve fitting was conducted and the EC₅₀ value was calculated using Graphpad Prism software.
# T1 sequence (P08069 31-932 limits assumed): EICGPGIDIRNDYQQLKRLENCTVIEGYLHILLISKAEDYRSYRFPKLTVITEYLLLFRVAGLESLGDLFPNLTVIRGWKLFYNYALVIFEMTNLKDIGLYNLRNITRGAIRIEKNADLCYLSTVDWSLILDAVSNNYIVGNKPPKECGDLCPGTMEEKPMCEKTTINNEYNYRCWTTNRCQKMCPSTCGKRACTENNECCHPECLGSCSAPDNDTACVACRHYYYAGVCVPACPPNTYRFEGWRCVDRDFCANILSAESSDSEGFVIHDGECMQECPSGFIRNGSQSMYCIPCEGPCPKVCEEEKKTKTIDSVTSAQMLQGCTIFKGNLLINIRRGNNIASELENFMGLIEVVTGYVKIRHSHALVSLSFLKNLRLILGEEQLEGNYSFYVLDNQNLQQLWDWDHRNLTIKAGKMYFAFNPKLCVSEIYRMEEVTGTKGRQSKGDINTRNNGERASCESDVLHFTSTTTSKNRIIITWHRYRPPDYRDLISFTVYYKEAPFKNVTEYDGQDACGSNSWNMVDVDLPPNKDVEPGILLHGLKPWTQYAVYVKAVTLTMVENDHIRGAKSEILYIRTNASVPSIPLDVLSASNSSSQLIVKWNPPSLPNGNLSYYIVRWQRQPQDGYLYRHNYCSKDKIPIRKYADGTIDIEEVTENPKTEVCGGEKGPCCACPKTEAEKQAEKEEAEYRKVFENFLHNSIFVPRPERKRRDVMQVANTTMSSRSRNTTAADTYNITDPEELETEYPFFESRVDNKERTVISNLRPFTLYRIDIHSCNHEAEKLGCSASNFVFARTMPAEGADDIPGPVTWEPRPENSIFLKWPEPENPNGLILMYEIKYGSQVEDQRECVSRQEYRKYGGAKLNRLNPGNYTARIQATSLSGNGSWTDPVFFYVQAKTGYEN
row,EC50,Binder
1,1.22 ng/mL,B1
2,3.35 ng/mL,B2
3,2.9 ng/mL,B3
4,2.21 ng/mL,B4
5,2.05 ng/mL,B5
6,2 ng/mL,B6
7,3.61 ng/mL,B7
8,2.3 ng/mL,B8
9,4.05 ng/mL,B9
10,1.41 ng/mL,B10
11,1.79 ng/mL,B11
12,3.04 ng/mL,B12
13,3.64 ng/mL,B13
14,5.36 ng/mL,B14
15,5.88 ng/mL,B15
16,3.79 ng/mL,B16
17,6.24 ng/mL,B17
18,1.06 ng/mL,B18
19,1.52 ng/mL,B19
20,1.43 ng/mL,B20
21,2.89 ng/mL,B21
22,1.18 ng/mL,B22
23,1.62 ng/mL,B23

row,EC50,Binder
1,1.79 ng/mL,B24
2,1.5 ng/mL,B25
3,3.92 ng/mL,B26
4,1.58 ng/mL,B27
5,1.47 ng/mL,B28
6,2.15 ng/mL,B29
7,4.31 ng/mL,B30
8,0.215 nM,B31
9,1.15 ng/mL,B32
10,0.299 nM,B33
11,1.83 ng/mL,B34
12,2.51 ng/mL,B35
13,2.45 ng/mL,B36
14,2.62 ng/mL,B37
15,1.74 ng/mL,B38
16,1.93 ng/mL,B39
17,1.84 ng/mL,B40
18,0.33 nM,B41
19,1.33 ng/mL,B42
20,2.67 ng/mL,B43
21,1.94 ng/mL,B44
22,1.23 ng/mL,B45
